In article PMC6585716 (Biopolymers, 2017):
code X = not defined here; Az4 = not defined here

Molecular target: Recombinant human vascular endothelial growth factor (VEGF165) (human, UniProt P15692-4 1-191)
Details: both partners purified

Chain of Recombinant human vascular endothelial growth factor (VEGF165) (P15692 other isoform, or with tags, fused parts or gaps): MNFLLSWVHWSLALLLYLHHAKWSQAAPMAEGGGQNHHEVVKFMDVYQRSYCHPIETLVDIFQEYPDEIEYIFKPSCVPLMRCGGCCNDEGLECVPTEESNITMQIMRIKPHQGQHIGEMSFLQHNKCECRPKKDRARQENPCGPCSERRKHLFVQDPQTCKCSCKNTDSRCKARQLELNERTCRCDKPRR

B1: AnchorV (X-VEPNCDIHVMWEWECFERL-Az4) (peptide)
peptide: {code X}-VEPNCDIHVMWEWECFERL-Az4
modifications: cysteine pairing not given here; reading uncertain
notes: also called anti-VEGF cyclic peptide ligand
In the case of B1, the EC50 is reported as 140 ± 21 nM.
